In test [1] the target is T1, Human TNF (human, UniProt P01375 77-233).
T1 construct: Biotinylated in the ELISA; purified recombinant protein in SPR; also called h TNF; huTNF
The test is described as follows: ELISA, captured DVD-Ig, biotin-human TNF titrated. The procedure: (§1) The following protocol is used to characterize the binding of TNF/IL-17 DVD-Ig proteins to human TNF and IL-17 by enzyme-linked immunosorbent assay (ELISA). An ELISA plate was coated with 50 μl per well of goat anti mouse IgG-Fc at 2 μg/ml, overnight at 4° C. The plate was washed 3 times with PBS/Tween. 50 μl Mab diluted to 1 μg/ml in PBS/0.1% BSA was added to appropriate wells and incubated for 1 hour at room temperature (RT). The plate was washed 3 times with PBS/Tween. 50 μl of serial diluted biotin-human TNF or IL-17 was added to appropriate wells and incubated for 1 hour at RT. The plate was washed 3 times with PBS/Tween. 50 μl of streptavidin-HRP diluted 1:10,000 in PBS/0.1% BSA was added to appropriate wells and incubated for 1 hour at RT. The plate was washed 3 times with PBS/Tween. 50 μl of TMB was added to appropriate wells and the reaction allowed to proceed for 1 minute. The reaction was stopped with 50 μl/well 2N H₂SO₄ and the absorbance read at 450 nm.
In general terms: In an ELISA, binding on a coated surface is turned into a signal by an enzyme label.

The target of test [2] is T2, Human IL-17A (human, UniProt Q16552 20-155, limits assumed).
T2 construct: Biotinylated in the ELISAs; purified recombinant protein in SPR; also called hIL17A; hIL-17
In words: ELISA, captured DVD-Ig, biotin-human IL-17 titrated. The procedure:
as §1

Test [3] has as its target T2, Human IL-17A. The test is described as follows: ELISA, captured antibody, biotin-human IL-17 titrated. The procedure:
as §1, with “IL-17 antibodies” for “TNF/IL-17 DVD-Ig proteins”, “human” for “human TNF and”, “biotin-human” for “biotin-human TNF or”

In test [4] the target is T2, Human IL-17A. In words: SPR (Biacore T200), antibody captured by anti-human IgG Fc, antigen in solution. The procedure:
(§2) The binding of antibodies to purified recombinant IL-17 proteins was determined by surface plasmon resonance-based measurements with a Biacore® T200 instrument (GE Healthcare) using running HBS-EP (10 mM HEPES [pH 7.4], 150 mM NaCl, 3 mM EDTA, and 0.005% surfactant P20) containing 0.1 mg/ml BSA at 25° C. All chemicals were obtained from Biacore® AB (GE Healthcare) or otherwise from a source as described in the text. Approximately 5000 RU of goat anti-human IgG (Fcg) fragment specific polyclonal antibody (Pierce Biotechnology Inc, Rockford, Ill.) diluted in 10 mM sodium acetate (pH 4.5) was directly immobilized across a CM5 research grade biosensor chip using a standard amine coupling kit according to manufacturer's instructions and procedures at 25 μg/ml. Unreacted moieties on the biosensor surface were blocked with ethanolamine. Modified carboxymethyl dextran surface in flowcell 2, 3 and 4 were used as a reaction surface. Modified carboxymethyl dextran with Goat IgG in flow cell 1 was used as the reference surface. For kinetic analysis, rate equations derived from the 1:1 Langmuir binding model were fitted simultaneously to association and dissociation phases of all six injections (using global fit analysis with local float for Rmax) with the use of Biacore T200 Evaluation software v.1.0. Purified antibodies were diluted in HEPES-buffered saline for capture across goat anti-human IgG specific reaction surfaces. Antibodies to be captured as ligand (1-5 μg/ml) were injected over reaction matrices at a flow rate of 50 μl/minute. Association phase was monitored for 5 minute, while dissociation phase was monitored for 10-60 min to accommodate for slower off-rates. The association and dissociation rate constants, ka (unit M-1 s-1) and kd (unit s-1) were determined under a continuous flow rate of 50 μl/minute. Rate constants were derived by making kinetic binding measurements at six different antigen concentrations ranging from 0.78 nM to 100 nM, depending on the species of IL-17 tested. The association ka, dissociation rate kd and equilibrium dissociation constant KD were calculated with the use of the same Biacore T200 Evaluation software v.1.0.
A general note: In SPR one partner is held on a chip, and binding of the other changes the refractive index at the surface.

Test [5] deals with T3, Cynomolgus monkey IL-17A (cynomolgus monkey, UniProt A0A2K5TTB0 24-155).
T3 construct: also called Cyno IL-17AA; Cyno IL17AA
Described as above. The procedure:
as §2

Test [6] has as its target T1, Human TNF. In words: cell-based or functional assay.

The values below come from patent US20140161804A1 (AbbVie / Abbott, published 2014).

Broadly, the EC50 is the concentration needed to bring the measured effect to its halfway point. The Kd is a measure of binding affinity in units of concentration. Usually koff stands for a measure of how fast the partners let go of each other. The term kon denotes the second-order rate constant of association.

T3 sequence (A0A2K5TTB0 entry or part of it): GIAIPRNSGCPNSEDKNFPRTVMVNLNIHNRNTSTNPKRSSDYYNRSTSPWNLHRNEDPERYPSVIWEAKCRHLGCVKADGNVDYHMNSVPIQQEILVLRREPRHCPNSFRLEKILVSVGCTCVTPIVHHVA
T1 sequence (P01375 77-233 limits assumed): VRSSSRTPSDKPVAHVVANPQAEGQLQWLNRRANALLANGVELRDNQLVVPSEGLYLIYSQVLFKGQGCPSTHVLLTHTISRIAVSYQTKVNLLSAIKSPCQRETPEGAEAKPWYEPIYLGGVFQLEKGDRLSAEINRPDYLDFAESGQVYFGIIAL
T2 sequence (Q16552 20-155 limits assumed): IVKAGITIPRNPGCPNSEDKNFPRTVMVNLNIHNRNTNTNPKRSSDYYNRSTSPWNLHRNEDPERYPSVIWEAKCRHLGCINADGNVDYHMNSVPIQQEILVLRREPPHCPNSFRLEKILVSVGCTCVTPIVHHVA

B1: hMAK199-1-h10F7-M10.8 QL DVD-Ig (bispecific antibody, human IgG1, kappa, L234A L235A)
heavy: EVQLVQSGAEVKKPGASVKVSCKASGYTFANYGIIWVRQAPGQGLEWMGWINTYTGKPTYAQKFQGRVTMTTDTSTSTAYMELSSLRSEDTAVYYCARKLFTTMDVTDNAMDYWGQGTTVTVSSGGGGSGGGGSEVQLVQSGAEVKKPGSSVKVSCKASGYTFDDYEIHWVRQAPGQGLEWIGVNDPESGGTFYNQKFDGRATLTADKSTSTAYMELSSLRSEDTAVYYCTRYDKWDSFYGMDYWGQGTTVTVSSASTKGPSVFPLAPSSKSTSGGTAALGCLVKDYFPEPVTVSWNSGALTSGVHTFPAVLQSSGLYSLSSVVTVPSSSLGTQTYICNVNHKPSNTKVDKKVEPKSCDKTHTCPPCPAPEAAGGPSVFLFPPKPKDQLMISRTPEVTCVVVDVSHEDPEVKFNWYVDGVEVHNAKTKPREEQYNSTYRVVSVLTVLHQDWLNGKEYKCKVSNKALPAPIEKTISKAKGQPREPQVYTLPPSREEMTKNQVSLTCLVKGFYPSDIAVEWESNGQPENNYKTTPPVLDSDGSFFLYSKLTVDKSRWQQGNVFSCSVLHEALHNHYTQKSLSLSPGK
light: DIQMTQSPSSLSASVGDRVTITCRASQDISQYLNWYQQKPGKAPKLLIYYTSRLQSGVPSRFSGSGSGTDFTLTISSLQPEDFATYFCQQGNTWPPTFGQGTKLEIKRGGSGGGGSGDIQMTQSPSSLSASVGDRVTITCSASSGSISYIDWFQQKPGKAPKRLIYATFELASGVPSRFSGSGSGTDFTLTISSLQPEDFATYYCHQLGSYPDTFGQGTKLEIKRTVAAPSVFIFPPSDEQLKSGTASVVCLLNNFYPREAKVQWKVDNALQSGNSQESVTEQDSKDSTYSLSSTLTLSKADYEKHKVYACEVTHQGLSSPVTKSFNRGEC
notes: DVD-Ig; IgG1 (234,235) mut with QL mutations, kappa; GS10 linkers
In the case of B1, the EC50 was 0.183 nM in test [1] and 0.063 nM in test [2].

B2: hMAK199-1-h10F7-M11.8 YTE DVD-Ig (bispecific antibody, human IgG1, kappa, L234A L235A)
heavy: EVQLVQSGAEVKKPGASVKVSCKASGYTFANYGIIWVRQAPGQGLEWMGWINTYTGKPTYAQKFQGRVTMTTDTSTSTAYMELSSLRSEDTAVYYCARKLFTTMDVTDNAMDYWGQGTTVTVSSGGGGSGGGGSEVQLVQSGAEVKKPGSSVKVSCKASGYTFTDYEIHWVRQAPGQGLEWMGVNDPESGGTFYNQKFDGRVTLTADESTSTAYMELSSLRSEDTAVYYCTRYSKWDSFDGMDYWGQGTTVTVSSASTKGPSVFPLAPSSKSTSGGTAALGCLVKDYFPEPVTVSWNSGALTSGVHTFPAVLQSSGLYSLSSVVTVPSSSLGTQTYICNVNHKPSNTKVDKKVEPKSCDKTHTCPPCPAPEAAGGPSVFLFPPKPKDTLYITREPEVTCVVVDVSHEDPEVKFNWYVDGVEVHNAKTKPREEQYNSTYRVVSVLTVLHQDWLNGKEYKCKVSNKALPAPIEKTISKAKGQPREPQVYTLPPSREEMTKNQVSLTCLVKGFYPSDIAVEWESNGQPENNYKTTPPVLDSDGSFFLYSKLTVDKSRWQQGNVFSCSVMHEALHNHYTQKSLSLSPGK
light: DIQMTQSPSSLSASVGDRVTITCRASQDISQYLNWYQQKPGKAPKLLIYYTSRLQSGVPSRFSGSGSGTDFTLTISSLQPEDFATYFCQQGNTWPPTFGQGTKLEIKRGGSGGGGSGDIQMTQSPSSLSASVGDRVTITCRASSGIISYIDWFQQKPGKAPKRLIYATFDLASGVPSRFSGSGSGTDYTLTISSLQPEDFATYYCRQVGSYPETFGQGTKLEIKRTVAAPSVFIFPPSDEQLKSGTASVVCLLNNFYPREAKVQWKVDNALQSGNSQESVTEQDSKDSTYSLSSTLTLSKADYEKHKVYACEVTHQGLSSPVTKSFNRGEC
notes: DVD-Ig; IgG1 (234,235) mut with YTE mutations, kappa; GS10 linkers
As for B2, the EC50 was 0.1 nM in test [1] and 0.05 nM in test [2].

B3: IL17-h10F7M11 hIgG1/K mut (antibody, V domains shown)
VH: EVQLVQSGAEVKKPGSSVKVSCKASGYTFTDYEIHWVRQAPGQGLEWMGVNDPESGGTFYNQKFDGRVTLTADESTSTAYMELSSLRSEDTAVYYCTRYSKWDSFDGMDYWGQGTTVTVSS
VL: DIQMTQSPSSLSASVGDRVTITCRASSGIISYIDWFQQKPGKAPKRLIYATFDLASGVPSRFSGSGSGTDYTLTISSLQPEDFATYYCRQVGSYPETFGQGTKLEIK
notes: Full length human IgG1/kappa, IgG1 mut(234,235); also called J439M1S3R5#11; PR-1263009
Turning to B3, the EC50 in test [3] was 0.04 nM. In test [4], this molecule returned a Kd of 0.00159 nM, an off-rate constant (koff) of 7.24e-06 s⁻¹ and a kon of 4.53e+06 M⁻¹ s⁻¹. Moreover, in test [5], the Kd was determined as 0.00086 nM, the koff was determined as 3.88e-06 s⁻¹ and the kon was 4.5e+06 M⁻¹ s⁻¹.

B4: IL17-h10F7M10 hIgG1/K mut (antibody, V domains shown)
VH: EVQLVQSGAEVKKPGSSVKVSCKASGYTFDDYEIHWVRQAPGQGLEWIGVNDPESGGTFYNQKFDGRATLTADKSTSTAYMELSSLRSEDTAVYYCTRYDKWDSFYGMDYWGQGTTVTVSS
VL: DIQMTQSPSSLSASVGDRVTITCSASSGSISYIDWFQQKPGKAPKRLIYATFELASGVPSRFSGSGSGTDFTLTISSLQPEDFATYYCHQLGSYPDTFGQGTKLEIK
notes: Full length human IgG1/kappa, IgG1 mut(234,235) (HC plasmid pHybE-hCg1,z,non-a,mut(234,235); LC pHybE-hCk); also called J439M1S3R5#10; PR-1262986
Turning to B4, the response in test [3] was half-maximal at 0.03 nM (EC50). Moreover, in test [4], binding was put at a Kd of 0.00153 nM, the koff came out at 6.8e-06 s⁻¹ and the kon is 4.45e+06 M⁻¹ s⁻¹. Further, in test [5], the Kd is 0.00106 nM, the off-rate (koff) is 4.4e-06 s⁻¹ and the on-rate constant (kon) is 4.14e+06 M⁻¹ s⁻¹.

B5: IL17-h10F7M-A16 hIgG1/K mut (antibody, V domains shown)
VH: EVQLVQSGAEVKKPGSSVKVSCKASGYTFSDYEIHWVRQAPGQGLEWMGVNDPESGGTFYNQKFDGRVTLTADESTSTAYMELSSLRSEDTAVYYCTRYDKWYSFEGMDIWGQGTTVTVSS
VL: DIQMTQSPSSLSASVGDRVTITCSASQGIRSYIDWFQQKPGKSPKRLIYATFDLASGVPSRFSGSGSGTDYTLTISSLQPEDFATYYCRQVGNYPGTFGQGTKLEIK
notes: Full length human IgG1/kappa, IgG1 mut(234,235); also called h10F7-A16; J439M1S2(H)3 #A16
In test [3], B5 registered a 50% effective concentration (EC50) of 0.07 nM. In test [4], this molecule registered a Kd of 0.00151 nM, a koff of 4.52e-06 s⁻¹ and a kon of 2.99e+06 M⁻¹ s⁻¹.

B6: IL17-h10F7M-B13 hIgG1/K mut (antibody, V domains shown)
VH: EVQLVQSGAEVKKPGSSVKVSCKASGYTFSDYEIHWVRQAPGQGLEWMGVNDPESGGTFYNQKFDGRVTLTADESTSTAYMELSSLRSEDTAVYYCTRYDKYWSFEGMDYWGQGTTVTVSS
VL: DIQMTQSPSSLSASVGDRVTITCRASSGIISYIDWFQQKPGKAPKRLIYATFDLASGVPSRFSGSGSGTDYTLTISSLQPEDFATYYCRQVGSYPETFGQGTKLEIK
notes: Full length human IgG1/kappa, IgG1 mut(234,235); also called h10F7-B13; J439M1S2(H)3 #B13
With B6, the half-maximal effective concentration (EC50) in test [3] stood at 0.06 nM. For the same molecule, in test [4], the affinity, expressed as Kd, was 0.00256 nM; the koff is 6.88e-06 s⁻¹; the on-rate (kon) was 2.68e+06 M⁻¹ s⁻¹.

B7: h10F7-M10-hMAk195-24.8 DVD-Ig (bispecific antibody, human IgG1, kappa, L234A L235A)
heavy: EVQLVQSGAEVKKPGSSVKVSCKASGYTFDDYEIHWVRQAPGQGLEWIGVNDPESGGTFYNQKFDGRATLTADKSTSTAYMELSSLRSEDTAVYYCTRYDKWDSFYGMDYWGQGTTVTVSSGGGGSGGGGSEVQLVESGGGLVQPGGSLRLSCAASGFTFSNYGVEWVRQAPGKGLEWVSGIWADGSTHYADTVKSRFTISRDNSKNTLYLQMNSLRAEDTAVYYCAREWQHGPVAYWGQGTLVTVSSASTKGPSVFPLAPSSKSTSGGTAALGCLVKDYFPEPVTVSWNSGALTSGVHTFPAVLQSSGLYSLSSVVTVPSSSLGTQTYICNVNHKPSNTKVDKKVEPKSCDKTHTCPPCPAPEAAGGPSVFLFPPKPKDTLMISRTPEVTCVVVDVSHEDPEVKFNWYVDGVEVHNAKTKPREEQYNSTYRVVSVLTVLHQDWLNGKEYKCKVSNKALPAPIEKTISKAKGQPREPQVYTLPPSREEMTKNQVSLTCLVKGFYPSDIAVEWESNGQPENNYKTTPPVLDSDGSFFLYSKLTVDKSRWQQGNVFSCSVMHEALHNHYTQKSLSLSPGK
light: DIQMTQSPSSLSASVGDRVTITCSASSGSISYIDWFQQKPGKAPKRLIYATFELASGVPSRFSGSGSGTDFTLTISSLQPEDFATYYCHQLGSYPDTFGQGTKLEIKRGGSGGGGSGDIQMTQSPSSLSASVGDRVTITCKASQLVSSAVAWYQQKPGKAPKLLIYWASTLHTGVPSRFSGSGSGTDFTLTISSLQPEDFATYYCQQHYRTPFTFGQGTKLEIKRTVAAPSVFIFPPSDEQLKSGTASVVCLLNNFYPREAKVQWKVDNALQSGNSQESVTEQDSKDSTYSLSSTLTLSKADYEKHKVYACEVTHQGLSSPVTKSFNRGEC
Turning to B7, in test [6], the “Potency IC50 (nM), L929 bioassay, human TNF” value was 2.56 nM.
